From PMC4015550, “Immunopurification of adenomatous polyposis coli (APC) proteins” (BMC Research Notes, 2013)

Target: the molecule itself
Assay: not stated; data not shown; APC fragment of residues 1-61 said to form a dimer; no method or conditions told

B1: APC-NT antigen (APC residues 1–61 with an N-terminal FLAG-tag) (domain or fragment, human, UniProt P25054 1-61, looked up)
chain: MAAASYDQLLKQVEALKMENSNLRQELEDNSNHLTKLETEASNMKEVLKQLQGSIEDEAMA
notes: adenomatous polyposis coli (APC), human, amino acids 1-61, the N-terminal oligomerisation (coiled-coil) region; also called N-terminal fragment of APC (residues 1–61); source: E. coli (pET30a+), purified (anti-FLAG M2 Sepharose, MonoQ anion exchange, reversed-phase HPLC)
  stoichiometry N: 2
